Measured values from IntAct's records for PubMed 22085930.

B1: Ubiquitin-conjugating enzyme E2-21 kDa (Saccharomyces cerevisiae), P29340 (parent)
chain: MPNFWILENRRSYTSDTCMSRIVKEYKVILKTLASDDPIANPYRGIIESLNPIDETDLSKWEAIISGPSDTPYENHQFRILIEVPSSYPMNPPKISFMQNNILHCNVKSATGEICLNILKPEEWTPVWDLLHCVHAVWRLLREPVCDSPLDVDIGNIIRCGDMSAYQGIVKYFLAERERINNH
partner: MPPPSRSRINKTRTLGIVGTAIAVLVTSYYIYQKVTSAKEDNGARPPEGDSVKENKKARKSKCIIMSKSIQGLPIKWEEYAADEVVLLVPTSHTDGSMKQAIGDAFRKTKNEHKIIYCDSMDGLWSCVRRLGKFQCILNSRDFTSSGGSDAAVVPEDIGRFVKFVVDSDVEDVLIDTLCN
B2: Peroxisome assembly protein 22 (Saccharomyces cerevisiae), P39718 (parent)
chain: B1 partner
partner: B1 chain

Variants of: B1
Details: with pex22_yeast PEX22, P39718

Variant | effect of a mutation on the interaction
MPNFWILENRRSYTSDTCMSRIVKEYKVILKTLASDDPIANPYRGIIESLNPIDETDLSKWEAIISGPSDTPYENHQFRILIEVPSSYPMNPPKISFMQNNILHCNVKSATGEICLNILKPEEWTPVWDLLHCVHAVWRLLREPVCDSPLDVDIGNIIRCGDMSAYQGIVKFFLAERERINNH [Y172F] | decreasing interaction

Variants of: B1
Details: with pex22_yeast PEX22, P39718
Remark: another data set of the same source

Variant | effect of a mutation on the interaction
MPNFWILENRRSYTSDTCMSRIVKEYKVILKTLASDDPIANPYRGIIESLNPIDETDLSKWEAIISGPSDTPYENHQFRILIEVPSSYPMNPPKISFMQNNILHCNVKSATGEICLNILKPEEWTPVWDLLHCVHAVWRLLREPVCDSPLDVDIGNIIRCGDMSAYQGIVKAFLAERERINNH [Y172A] | disrupting interaction

Variants of: B2
Details: with ubcx_yeast PEX4, P29340

Variant | effect of a mutation on the interaction
MPPPSRSRINKTRTLGIVGTAIAVLVTSYYIYQKVTSAKEDNGARPPEGDSVKENKKARKSKCIIMSKSIQGLPIKWEEYAADEVVLLVPTSHTDGSMKQAIGDAFRKTKNEHKIIYCDSMDGLWSCVRRLGAFQCILNSRDFTSSGGSDAAVVPEDIGRFVKFVVDSDVEDVLIDTLCN [K133A] | decreasing interaction
